According to article PMC6265350:

Key:
[1] = biological target: T1, MtrA~P (UniProt P9WGM7); test: EMSA; conditions: 50 mM Tris-HCl pH 7.5, 50 mM NaCl, 10 mM MgCl2, 10 mM CaCl2, poly dI/dC and sheared salmon sperm DNA (1 ug), 37 C 15 min; 200 fmol DNA, 1-10 uM protein; 5% …
T1 sequence: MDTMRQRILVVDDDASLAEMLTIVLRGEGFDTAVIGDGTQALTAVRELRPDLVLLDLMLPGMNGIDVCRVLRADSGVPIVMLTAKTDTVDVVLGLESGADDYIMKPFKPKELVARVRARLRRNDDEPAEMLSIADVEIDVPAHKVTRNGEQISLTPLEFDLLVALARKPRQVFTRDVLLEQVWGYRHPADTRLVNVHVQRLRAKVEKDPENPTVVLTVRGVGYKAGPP

[2] = biological target: T2, MtrA (unphosphorylated) (UniProt P9WGM7); test: EMSA; conditions: 50 mM Tris-HCl pH 7.5, 50 mM NaCl, 10 mM MgCl2, 10 mM CaCl2, […]
T2 sequence: T1 sequence

Sequence | binding [1] | binding [2]
CTGTGCAGAGTAGGTGATCGGCGGCCCGACCGCGAGGAGCCGCGCTGTGACTGGCGGGACGAAAGTTACAGATGAAGATATTTGCGTCCGGTGTCGGTGAGCACGCTGCGCAGGATGGTTTCGATGGTGTCGAACTCGGGCTGTCCGCTAATCAGCGGGGGAGCCACCTGGACGACGGGGTCCCCGCGGTCGTCGGTG (double strand) [PdacB1] | binds | 
TCGACTCAGATCTCCTAGGGCTCAACTCGGAGGGACAGCGCAGGTCAACGCCAACGACACCACAAGCATCATTTGCACCGTACGTCACATCTGACGCTATGGAAACGTAAGTCACAAACTGCCCCCGGTACGTGCGACTAATGTGACCCAACGGTGACCTCGCGCGTTTGCCGCAAACAACCGCCCGGTTAGCGCGGCAA (double strand) [PripA] | binds | binds
